According to patent EP4740967A1 (Shanghai Escugen Biotechnology Co., Ltd., dated 2026):

Key:
Assay in all cases: cell-based or functional assay
human Claudin18.2 [1] = molecular target: T1, human Claudin18.2 (human, UniProt P56856 1-261)
T1 sequence (looked up): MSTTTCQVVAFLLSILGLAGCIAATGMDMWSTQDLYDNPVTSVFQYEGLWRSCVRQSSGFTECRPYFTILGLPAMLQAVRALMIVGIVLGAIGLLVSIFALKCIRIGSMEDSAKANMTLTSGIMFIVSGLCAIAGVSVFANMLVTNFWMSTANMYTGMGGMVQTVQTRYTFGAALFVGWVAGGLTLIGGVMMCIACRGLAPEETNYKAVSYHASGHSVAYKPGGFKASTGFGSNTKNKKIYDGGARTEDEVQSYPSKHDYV

human Claudin18.2 [2] = molecular target: T1, human Claudin18.2; remark: listed apart in the source
human Claudin18.2 [3] = molecular target: T1, human Claudin18.2; remark: listed apart in the source
human Claudin18.2 [4] = molecular target: T1, human Claudin18.2; remark: listed apart in the source

B1: 9D1-LD-38 (antibody, human IgG1, kappa, V domains shown)
VH: QIQLVQSGAEVKKPGASVKISCKASGYSFTDYHMNWVRQAPGKGLEWIGNIDPYYGSPTYNHKFKGRVTLTVDTSTSTAYMELSSLRSEDTAVYYCANYGRGNSFPYWGQGTLVTVSS
VL: DIVMTQSPSSLAVSLGERATINCKSSQSLLNSGNQRNYLTWYQQKPGQPPKLLIYWASTRESGVPDRFSGSGSGTDFTLTISSLQAEDVAVYYCQNDYSFPFTFGQGTKLEIKR
modifications: LD-38 linker-drug (Exatecan) on reduced interchain cysteine; main conjugation form one LD-38 molecule per light chain; LD-38 linker-drug (Exatecan) on reduced interchain cysteines; main conjugation form three LD-38 molecules per heavy chain (DAR 8 nominal, 7.8 measured)
- IC50 of in vitro cell killing on NUGC4-hClaudin18.2 cells (CCK-8 cell viability, 120 h) (human Claudin18.2 [1]): 0.728 nM
- IC50 of inhibition of proliferation of MC38-hClaudin18.2 cells (AlamarBlue cell viability, 72 h) (human Claudin18.2 [2]): 0.632 nM
- IC50 of in vitro cell killing on MC38-hClaudin18.2 cells (AlamarBlue cell viability) (human Claudin18.2 [3]): 1.36 nM
- IC50 of in vitro cell killing on HEK293-hClaudin18.2 cells (AlamarBlue cell viability, 72 h) (human Claudin18.2 [4]): 0.09 nM
